Results taken from the supplement of paper PMC12042874.
± gives the uncertainty stated by the source.

Test: amyloid nucleation score (Sup35N fusion, yeast selection) (log enrichment); library NNK2; higher = more nucleation; inactive = no reads after selection
Outline: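 Three technical output replicates were used for random libraries. Psi-negative yeast expressing peptides of 20 random codons fused to Sup35N were induced with 100 μM copper sulfate for 24 hours and grown 7 days at 30°C on medium lacking adenine and uracil, and input and output plasmid inserts were Illumina-sequenced, excluding sequences with under 100 input reads. The nucleation score is the DiMSum log enrichment of output over input reads, centred on the mode score of non-aggregating sequences.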

Substance | amyloid nucleation score
KSRIDSESGGGQSFS | -0.805 ± 0.63
NWPNPVSLMSRIDFRMV | -0.131 ± 0.31
LSLNFLPYWLPQARCL | 5.06 ± 0.099
RVYLMLLVQYRTWSYVFVDC | -0.402 ± 0.26
SYFLYLGLNPVYQWYDSFVV | 1.47 ± 0.14
DIWPNDLGYVFVLSA | -0.218 ± 0.53
AFFKR | 0.182 ± 0.38
FCAMGGPSRGLVNRWFGS | -0.746 ± 0.41
NRWAYGVFWHSWFIKSHFG | 0.14 ± 1
QMEDSMYLNALRGVSWVTKL | inactive
YVSLNQRVNFA | -1.47 ± 0.76
SLNPTRSWMRFNINKAHFLL | -0.204 ± 0.48
MNVMNQSSFHMV | -0.108 ± 1.1
WDDFTYGYRLRIYFLIFQRG | -1.15 ± 1.1
RVLVVYRSLKVAESLSLTSV | 0.093 ± 0.33
MHGFNDAYFLCDVSAQGLV | -0.128 ± 0.28
LTLLYIWSKDAVRYLLGNMD | -1.09 ± 1.1
FCPVHSGISS | -0.578 ± 0.79
DGKVSC | inactive
FVSIVPYRFL | -1.56 ± 0.48
RGLRMTRIISFFGIVGL | 8.507 ± 0.026
LVFLIETRNFFRLHLSGCWA | -1.27 ± 0.75
PYYKAGGYMVMVHLSRLFLL | -0.882 ± 0.47
DLGGMP | -0.501 ± 0.48
VFWLLGCVHNRGVGQTSHKL | 0.741 ± 0.47

Substance | amyloid nucleation score
TGALVNM | 0.13 ± 1.1
GSFSEYVLWT | 0.863 ± 0.41
GVFALSPRKHLRCDVVAWGV | 0.884 ± 0.55
NFPRRSRVLKYCITLSSNHS | -0.158 ± 0.5
VLSENITSLISKCYCFKSHL | 6.021 ± 0.038
LGIVHGNNY | -1.14 ± 0.76
IIVYVDDSPLYAVSRLQSYC | 0.758 ± 0.13
LSTSWQRLVTILPLEWYHS | 0.052 ± 0.26
LNCENELDFKLLSQSNTTMC | 0.199 ± 0.62
WRCSSISCDCDARLGRMRVS | 0.697 ± 0.42
SHDAYGIYRLQ | 0.696 ± 0.38
LRSLIYRCVLQWNTAKFLRS | -0.716 ± 1.1
GIIGYDVKNKHHLTVGLRFI | -0.285 ± 0.24
GRKTDFHFDVRFAWGDNGFS | inactive
CVILDWSVVCFMELVINSRS | 3.21 ± 0.065
SFSPFVYG | -0.868 ± 0.44
YVCGWINVLG | -0.661 ± 0.63
YSFMS | -0.458 ± 0.27
LVWCAISSNNKGLINVLADS | -1.47 ± 0.5
SLVTLWLGANAR | 0.175 ± 0.26
CCLYYHMIKAWDTTGVRLVN | -1.4 ± 0.78
ANFGALHRAHESVECSLY | inactive
TSQLRMDGSSILMAHLKCYR | 0.441 ± 0.26
HFNSLVSGQYMWSSGKSLVP | 4.01 ± 0.061
WLGYFK | inactive

Substance | amyloid nucleation score
FRSGRWRNGALSWHALATL | 0.658 ± 0.52
LSMVYYATFDGF | -1.01 ± 1.1
RLLDFCQFPVTS | 3.7 ± 0.063
WLDLTYFFSRLGVDVISLQ | -0.468 ± 0.48
NLWRLISNLIDVMHPMYSTE | -0.089 ± 1.1
RSDMH | 0.673 ± 0.44
RFCHTSRGSGGLGRLCQLAL | 0.157 ± 1
VLVNKGLTMHFACSYV | 0.547 ± 0.81
QVIDTSPRHVMVIYVP | -0.307 ± 0.76
FDDRMCLCTIKQSK | -1 ± 0.78
GGIAACPGLEINWKFDLVQW | 0.914 ± 0.32
TRDCLYFVLLILIIYLFGLR | 3.12 ± 0.14
FTNNSPARSCDRVHGDGVRH | 0.376 ± 0.35
NGNVVADWI | 0.809 ± 0.27
GLSAHYA | 0.113 ± 1.1
IVWLLLSGRF | 4.54 ± 0.098
LHTTCLFSRWNVFL | 2.3 ± 0.076
LNTLDNN | -0.047 ± 0.16
VMMNSCNCRSYTLYLL | 9.183 ± 0.075
FLDGAYSWLWLGSYIRGLSH | -0.262 ± 0.56
SNSQMKAAMVGCNLRGMEQA | 0.689 ± 0.57
FCNFGFIRNRSDDIGVSRGV | -1.07 ± 0.47
SFLDYRSLTVMFVAGQSTVR | -0.645 ± 0.53
VDRHYRSLRFVVGQSVLHSK | 4.952 ± 0.046
KYSCTLVPFLLARFDLGSWG | -0.112 ± 0.34

Substance | amyloid nucleation score
RMLLQGVKAVGRGNNGINTV | 0.479 ± 0.8
NNYIVTW | 0.233 ± 0.74
SMSMYTPNFFDFVVVRPTIY | inactive
FMMTRKGIFELHFISRE | 0.097 ± 1.1
WALTHVSLYRFGER | 4.32 ± 0.093
FALREYGYLSSYYFCMGGPT | 3.56 ± 0.094
TVGIVGFHVVVRELWVGVRR | 6.868 ± 0.066
VRCNFISVWSCDVESIVVES | 5.096 ± 0.046
GYNQLLTQGKPGYCFRISRV | -1.29 ± 0.78
ITKAASTWDLLFFVRQVCRT | 0.353 ± 0.61
VLAFRFYFAVVLGLMIVYG | -0.16 ± 0.62
KCFKVRTDLWRSC | 1.38 ± 0.53
GSVFLRGTYWVLKDVCGWKE | 0.391 ± 0.56
VIYVPLGKNLKIFSKHSFFG | -0.906 ± 0.76
VLSRVDQSTGVIGQTGMVAC | 0.6 ± 0.17
SYRSRVQYLCGNSMCLHAPI | 5.15 ± 0.098
GIQGLRVWFAYMFPSVVLLC | -0.987 ± 0.78
SRSVFIRSLAVITVIWILT | 1.34 ± 0.13
STSSNGSEYHCLSI | 1.05 ± 0.44
FELIFELLLKKCALI | 0.032 ± 0.54
NYCRTIFYYCAMIYFPCLAE | 1.77 ± 0.22
DSIYVL | -0.831 ± 0.44
SLNISCYWHLKFVMRAWHTW | -0.465 ± 1
YGVDLSRRMV | 0.043 ± 0.46
RSFYIAVSYMGCICIMPIRR | 2.89 ± 0.13

Substance | amyloid nucleation score
ILVREHFVSIKFLSR | -1.21 ± 1.1
IESSEQSWT | -0.75 ± 0.36
AISHQPLWLLCHVVHLFRNS | 0.279 ± 0.32
VNFLGWSLVGKCRFQFWTVR | inactive
LYEMVVM | 0.05 ± 1
FRGLVILNRNGVCDILEYGC | -0.58 ± 0.27
TVVGSLSVVF | 1.47 ± 0.38
LINWVVVLYG | 1.9 ± 0.14
FTVLCYSSDIMEDFRFTHHN | 4.12 ± 0.047
YTKSQGAFT | -0.135 ± 0.65
SIFRLDDEGDPVMREPLM | 1.22 ± 0.59
VYRDDCFHFLDTSQTGACLT | 0.797 ± 0.4
EEMMFPFAFVFFICSFRNRL | 2.9 ± 0.065
CCDRSAPAT | -0.12 ± 0.54
LDNACSQGGGDFRLSLS | -0.773 ± 0.55
SRIFVRYTLAKLVDFSCPES | 0.61 ± 0.46
RHVYWSRSPPRTYGKEWTKG | 0.647 ± 0.23
VWPGLIGHRSFFINLHVGKG | 7.38 ± 0.082
MVILVLFASTVLQYTVPFWV | 0.247 ± 0.5
VGCIYSFWEWVFKQPVRSRK | inactive
PLYEELVWGRFRLMVYTGRF | -0.193 ± 0.76
INFLNWFNLFDGYMFSLSAY | inactive
ILSLRNR | -0.965 ± 1
HKLTRRKWNCLRNWKLNLHQ | -0.953 ± 0.54
FNMTIVDISLYRFMNVLKRP | -0.907 ± 0.78

Substance | amyloid nucleation score
YVLGVF | 0.045 ± 0.79
KRTWFERLWSSSNRVLGCLC | 4.27 ± 0.051
GKSEVGLGVGEHMQSEHGGS | -0.055 ± 0.49
LSRSGNAPDMKKLLNFGQTR | 3.71 ± 0.042
FKIDNGWYWCRTCGQNKGSS | -0.461 ± 0.56
IFMRVHLSMIVELKTHPDI | 3.2 ± 0.056
RLYNKALYANFKNYSLTCFS | -0.39 ± 0.64
LDTVPTWFYQVMWGYDWVLK | 2.81 ± 0.11
VGSFIFLLRCWLSCAIAGVQ | -0.323 ± 0.65
LNLNR | inactive
VQRQIDNSKLWYNYTICIPA | 0.679 ± 0.62
SIGNIVVLVEERSVRQPTLF | 2.79 ± 0.14
PCVLKLRSSSKSISCSWGVS | 3.85 ± 0.074
VSCNSYMGVLMDDGRVETLE | 0.486 ± 0.2
VATLMIKFR | 4.116 ± 0.036
AFDGGIFFSLMSFMLVWMGS | -0.345 ± 0.56
WTWFESVLRPCKGLGRAPHI | -0.172 ± 0.8
CISVVFVRHNGNFVSFNELV | 6.412 ± 0.05
NHSMRPNRTVSGMLTSIYYR | -0.533 ± 0.55
DYAIVSGVLLTQMQQLMCFV | 0.466 ± 0.33
LCRDCPNRVQLCQLL | -0.684 ± 0.54
PTVSLKDISGWIKPVRYLNG | 0.26 ± 0.25
RSVRSFCVWKVELFVRSEGM | 2.01 ± 0.15
VDCGFYSSIVAFYRYVHVPW | -0.026 ± 0.27
ECVLMTGTMWSTSSALW | 0.877 ± 0.53

Substance | amyloid nucleation score
VAHKSPFIAHFTWVILAYGM | 0.211 ± 0.61
YNYWMQSLGSWVEVLSSVSV | -0.365 ± 0.5
ISPIVEIGRASTVTLSDISV | 4.71 ± 0.054
FCSSSVIYQKKLA | -0.782 ± 0.24
NLGRAQTSQ | 0.192 ± 0.65
TLYMFMPMLFNVIPEVRWPP | 9.03 ± 0.071
ILQGADLKLVYFVNHRMERV | 1.24 ± 0.21
IIFVFREYAINMKGVFK | 0.082 ± 1
GNGMNWPC | 2.16 ± 0.13
NVFFSFSMYKDAYNE | -0.937 ± 0.54
YRLYHILECSGVMMS | -1.01 ± 0.44
FVSMNAGVYVGHRGHIMEFI | inactive
SMYDAGIFVGYCLRGFLYDC | inactive
SWGYNRF | inactive
FLNPYNFWLDFWYFLIDSMT | inactive
SKGNVV | 0.709 ± 0.42
ELSGGQTLLCRSVYLDVDRV | 3.74 ± 0.064
GFTRKASGADTRGRRTAVSS | 1.61 ± 0.37
SSYGWSGTC | -0.833 ± 0.63
HKIPLFYCSYTELGSSVERR | 1.38 ± 0.15
DCISRY | 1 ± 0.68
IYCVRQSDGQYSSEMAHYII | 2.64 ± 0.094
